Reference: the supplement of paper PMC10567573

B1: PKD2L1 (parent)
chain: SGPEAARAGGWVSGEEFYMLTRRV

Variants of: B1
Assay: protein stability index of a GFP-peptide fusion (GPS, HEK-293T) (PSI 1-6); higher = more stable
Settings: c terminus: a fixed tail appended
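Also: lentivirally expressed fusions sorted by FACS into six bins by GFP to DsRed ratio, PSI derived from sequencing read proportions per bin multiplied by bin number.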

| Variant | protein stability index |
| --- | --- |
| SGPEAARAGGWVSGEEFYMQTRRV [L20Q] | 3.1 |
| SGPEAARAGGWVSGEEFYMRTRRV [L20R] | 3.79 |
| SGPEAARAGGWVSGEEFYMPTRRV [L20P] | 3.94 |
| SGPEAARAGGWVSGEEFYMGTRRV [L20G] | 4.08 |
| SGPEAARAGGWVSGEEFYMSTRRV [L20S] | 3.61 |
| SGPEAARAGGWVSGEEFYMKTRRV [L20K] | 3.46 |
| SGPEAARAGGWVSGEEFYMTTRRV [L20T] | 2.81 |
| SGPEAARAGGWVSGEEFYMITRRV [L20I] | 2.01 |
| SGPEAARAGGWVSGEEFYMWTRRV [L20W] | 1.73 |
| SGPEAARAGGWVSGEEFYMCTRRV [L20C] | 2.97 |
| SGPEAARAGGWVSGEEFYMHTRRV [L20H] | 2.69 |
| SGPEAARAGGWVSGEEFYMATRRV [L20A] | 3.16 |
| SGPEAARAGGWVSGEEFYMNTRRV [L20N] | 3.79 |
| SGPEAARAGGWVSGEEFYMMTRRV [L20M] | 2.93 |
| SGPEAARAGGWVSGEEFYMVTRRV [L20V] | 2.25 |
| SGPEAARAGGWVSGEEFYMYTRRV [L20Y] | 2.74 |
| SGPEAARAGGWVSGEEFYMFTRRV [L20F] | 1.81 |
| SGPEAARAGGWVSGEEFYMDTRRV [L20D] | 4.19 |
| SGPEAARAGGWVSGEEFYMETRRV [L20E] | 3.64 |
| SGPEAARAGGWVSGEEFFMLTRRV [Y18F] | 2.23 |
| SGPEAARAGGWVSGEEFPMLTRRV [Y18P] | 3.21 |
| SGPEAARAGGWVSGEEFAMLTRRV [Y18A] | 3.38 |
| SGPEAARAGGWVSGEEFQMLTRRV [Y18Q] | 3.03 |
| SGPEAARAGGWVSGEEFCMLTRRV [Y18C] | 3.05 |

| Variant | protein stability index |
| --- | --- |
| SGPEAARAGGWVSGEEFDMLTRRV [Y18D] | 3.94 |
| SGPEAARAGGWVSGEEFKMLTRRV [Y18K] | 4.08 |
| SGPEAARAGGWVSGEEFLMLTRRV [Y18L] | 2.56 |
| SGPEAARAGGWVSGEEFMMLTRRV [Y18M] | 2.84 |
| SGPEAARAGGWVSGEEFWMLTRRV [Y18W] | 2.69 |
| SGPEAARAGGWVSGEEFRMLTRRV [Y18R] | 3.55 |
| SGPEAARAGGWVSGEEFHMLTRRV [Y18H] | 3.46 |
| SGPEAARAGGWVSGEEFSMLTRRV [Y18S] | 3.4 |
| SGPEAARAGGWVSGEEFVMLTRRV [Y18V] | 2.89 |
| SGPEAARAGGWVSGEEFGMLTRRV [Y18G] | 3.44 |
| SGPEAARAGGWVSGEEFEMLTRRV [Y18E] | 3.77 |
| SGPEAARAGGWVSGEEFNMLTRRV [Y18N] | 3.69 |
| SGPEAARAGGWVSGEEFTMLTRRV [Y18T] | 3.52 |
| SGPEAARAGGWVSGEEFIMLTRRV [Y18I] | 2.32 |
| SGPEAARAGGWVSGEEFYILTRRV [M19I] | 2.01 |
| SGPEAARAGGWVSGEEFYHLTRRV [M19H] | 3.08 |
| SGPEAARAGGWVSGEEFYPLTRRV [M19P] | 3.94 |
| SGPEAARAGGWVSGEEFYGLTRRV [M19G] | 3.03 |
| SGPEAARAGGWVSGEEFYELTRRV [M19E] | 3.69 |
| SGPEAARAGGWVSGEEFYYLTRRV [M19Y] | 2.39 |
| SGPEAARAGGWVSGEEFYKLTRRV [M19K] | 3.1 |
| SGPEAARAGGWVSGEEFYRLTRRV [M19R] | 3.11 |
| SGPEAARAGGWVSGEEFYDLTRRV [M19D] | 3.5 |
| SGPEAARAGGWVSGEEFYSLTRRV [M19S] | 3.43 |

| Variant | protein stability index |
| --- | --- |
| SGPEAARAGGWVSGEEFYFLTRRV [M19F] | 2.93 |
| SGPEAARAGGWVSGEEFYALTRRV [M19A] | 2.13 |
| SGPEAARAGGWVSGEEFYVLTRRV [M19V] | 1.48 |
| SGPEAARAGGWVSGEEFYWLTRRV [M19W] | 2.68 |
| SGPEAARAGGWVSGEEFYLLTRRV [M19L] | 3.28 |
| SGPEAARAGGWVSGEEFYTLTRRV [M19T] | 2.94 |
| SGPEAARAGGWVSGEEFYQLTRRV [M19Q] | 3.38 |
| SGPEAARAGGWVSGEEFYNLTRRV [M19N] | 3.63 |
| SGPEAARAGGWVSGEEFYCLTRRV [M19C] | 2.82 |
| SGPEAARAGGWVVGEEFYMLTRRV [S13V] | 2.03 |
| SGPEAARAGGWVYGEEFYMLTRRV [S13Y] | 2.07 |
| SGPEAARAGGWVTGEEFYMLTRRV [S13T] | 2.13 |
| SGPEAARAGGWVWGEEFYMLTRRV [S13W] | 2.17 |
| SGPEAARAGGWVQGEEFYMLTRRV [S13Q] | 3.19 |
| SGPEAARAGGWVRGEEFYMLTRRV [S13R] | 2.84 |
| SGPEAARAGGWVSGEEFYMLTSRV [R22S] | 2.55 |
| SGPEAARAGGWVSGEEFYMLTNRV [R22N] | 2.81 |
| SGPEAARAGGWVSGEEFYMLTHRV [R22H] | 1.96 |
| SGPEAARAGGWVSGEEFYMLTIRV [R22I] | 2.28 |
| SGPEAARAGGWVSGEEFYMLTWRV [R22W] | 1.72 |
| SGPEAARAGGWVSGEEFYMLTLRV [R22L] | 3.52 |
| SGPEAARAGGWVSGEEFYMLTYRV [R22Y] | 2.41 |
| SGPEAARAGGWVSGEEFYMLTDRV [R22D] | 3.43 |
| SGPEAARAGGWVSGEEFYMLTKRV [R22K] | 2.04 |

| Variant | protein stability index |
| --- | --- |
| SGPEAARAGGWVSGEEFYMLTPRV [R22P] | 2.44 |
| SGPEAARAGGWVSGEEFYMLTCRV [R22C] | 1.55 |
| SGPEAARAGGWVSGEEFYMLTQRV [R22Q] | 2.25 |
| SGPEAARAGGWVSGEEFYMLTGRV [R22G] | 2.33 |
| SGPEAARAGGWVSGEEFYMLTERV [R22E] | 3.26 |
| SGPEAARAGGWVSGEEFYMLTTRV [R22T] | 1.33 |
| SGPEAARAGGWVSGTEFYMLTRRV [E15T] | 2.45 |
| SGPEAARAGGWVSGYEFYMLTRRV [E15Y] | 1.65 |
| SGPEAARAGGWVSGAEFYMLTRRV [E15A] | 1.86 |
| SGPEAARAGGWVSGKEFYMLTRRV [E15K] | 2.92 |
| SGPEAARAGGWVSGCEFYMLTRRV [E15C] | 1.54 |
| SGPEAARAGGWVSGNEFYMLTRRV [E15N] | 2.46 |
| SGPEAARAGGWVSGWEFYMLTRRV [E15W] | 1.99 |
| SGPEAARAGGWVSGIEFYMLTRRV [E15I] | 1.59 |
| SGPEAARAGGWVSGHEFYMLTRRV [E15H] | 2.17 |
| SGPEAARAGGWVSGSEFYMLTRRV [E15S] | 2.1 |
| SGPEAARAGGWVSGGEFYMLTRRV [E15G] | 2.2 |
| SGPEAARAGGWVSGQEFYMLTRRV [E15Q] | 2.16 |
| SGPEAARAGGWVSGLEFYMLTRRV [E15L] | 2.02 |
| SGPEAARAGGWVSGPEFYMLTRRV [E15P] | 2.52 |
| SGPEAARAGGWVSGREFYMLTRRV [E15R] | 2.62 |
| SGPEAARAGGWVSGVEFYMLTRRV [E15V] | 2.03 |
